This note sets out measurements from US20200270588A1, “GLUCOSYL TRANSFERASE POLYPEPTIDES AND METHODS OF USE” (Syngenta Participations AG, priority 2017, published 2020).

First the molecules themselves.
B1: E76M: bx9 SEQ ID NO:1 mutant (protein)
chain: MASSRTGAGAGGRVVVFPFPFQGHFNPVMRLARALHARGLAITVFHSGALDPADYPADYRFVPVTVEADPKLLASMDIAAIVTTLNASCDAPFRARLSALLAAEGRDSVRCVFTDVSWNAVLTASSDLGVPALGMMTASAASLRDYMAYRTLIDKGYLPVKEERKEDPVPELPPYLVKDLLRVDTSDLEEFAELLARTVTAARRASGLIFNTFPLIETDTLAEIHKALSVPVFAVAPLNKLVPTATASLHGVVQADRGCLQWLDTQQPGSVLYVSFGSMAAMDPHEFVELAWGLADSKRPFVWVVRPNLIRGFESGALPDGVEDEVRGRGIVVAWAPQEEVLAHPAVGGFLTHNGWNSTVEAISEGVPMVCCPRHGDQFGNMRYVCDVWKVGTELVGEQLERGQVKAAIDRLFGTKEGEEIKERMKEFKIAAAKGIGIGVDVDETASPRTDLTDLVDLIKSF
modifications: Zea mays
B2: A79Q: bx9 SEQ ID NO:1 mutant (protein)
chain: MASSRTGAGAGGRVVVFPFPFQGHFNPVMRLARALHARGLAITVFHSGALDPADYPADYRFVPVTVEADPKLLASEDIQAIVTTLNASCDAPFRARLSALLAAEGRDSVRCVFTDVSWNAVLTASSDLGVPALGMMTASAASLRDYMAYRTLIDKGYLPVKEERKEDPVPELPPYLVKDLLRVDTSDLEEFAELLARTVTAARRASGLIFNTFPLIETDTLAEIHKALSVPVFAVAPLNKLVPTATASLHGVVQADRGCLQWLDTQQPGSVLYVSFGSMAAMDPHEFVELAWGLADSKRPFVWVVRPNLIRGFESGALPDGVEDEVRGRGIVVAWAPQEEVLAHPAVGGFLTHNGWNSTVEAISEGVPMVCCPRHGDQFGNMRYVCDVWKVGTELVGEQLERGQVKAAIDRLFGTKEGEEIKERMKEFKIAAAKGIGIGVDVDETASPRTDLTDLVDLIKSF
modifications: Zea mays
B3: A79N: bx9 SEQ ID NO:1 mutant (protein)
chain: MASSRTGAGAGGRVVVFPFPFQGHFNPVMRLARALHARGLAITVFHSGALDPADYPADYRFVPVTVEADPKLLASEDINAIVTTLNASCDAPFRARLSALLAAEGRDSVRCVFTDVSWNAVLTASSDLGVPALGMMTASAASLRDYMAYRTLIDKGYLPVKEERKEDPVPELPPYLVKDLLRVDTSDLEEFAELLARTVTAARRASGLIFNTFPLIETDTLAEIHKALSVPVFAVAPLNKLVPTATASLHGVVQADRGCLQWLDTQQPGSVLYVSFGSMAAMDPHEFVELAWGLADSKRPFVWVVRPNLIRGFESGALPDGVEDEVRGRGIVVAWAPQEEVLAHPAVGGFLTHNGWNSTVEAISEGVPMVCCPRHGDQFGNMRYVCDVWKVGTELVGEQLERGQVKAAIDRLFGTKEGEEIKERMKEFKIAAAKGIGIGVDVDETASPRTDLTDLVDLIKSF
modifications: Zea mays
B4: A79S: bx9 SEQ ID NO:1 mutant (protein)
chain: MASSRTGAGAGGRVVVFPFPFQGHFNPVMRLARALHARGLAITVFHSGALDPADYPADYRFVPVTVEADPKLLASEDISAIVTTLNASCDAPFRARLSALLAAEGRDSVRCVFTDVSWNAVLTASSDLGVPALGMMTASAASLRDYMAYRTLIDKGYLPVKEERKEDPVPELPPYLVKDLLRVDTSDLEEFAELLARTVTAARRASGLIFNTFPLIETDTLAEIHKALSVPVFAVAPLNKLVPTATASLHGVVQADRGCLQWLDTQQPGSVLYVSFGSMAAMDPHEFVELAWGLADSKRPFVWVVRPNLIRGFESGALPDGVEDEVRGRGIVVAWAPQEEVLAHPAVGGFLTHNGWNSTVEAISEGVPMVCCPRHGDQFGNMRYVCDVWKVGTELVGEQLERGQVKAAIDRLFGTKEGEEIKERMKEFKIAAAKGIGIGVDVDETASPRTDLTDLVDLIKSF
modifications: Zea mays

The experiment is described as follows: UDP luminescence plate assay of E. coli extracts, saturation mutants of SEQ ID NO: 1, herbicide V. Type of experiment: biochemical, Zea mays. The note with it: improvement factor relative to w/t bx9 = 1.0, rounded to nearest 0.5; extract activity basis; compound V. How it is done: Competent BL21 (DE3) cells are transformed as in the foregoing examples and, following seed culturing, grown and autoinduced in plates in a 0.5-1 ml volume of autoinduction medium containing 50 ug/ml kanamycin. Plates are incubated at 37° C. and shaken at 900 rpm. Growth is monitored by taking 20 ul aliquots, diluting 10 fold into flat-bottomed 96 well microtiter plates and reading OD600n at t=0, 1, 2, 2½ and 3 hours if necessary. At a (corrected) OD600 nm˜0.2, plates are transferred to 20° C. and shaken overnight at 900 rpm in a Jencons VWR plate incubator. After ˜18-20 h the final OD600 readings are recorded and the plates centrifuged at 4600 rpm (bench top centrifuge) for 10 min at 4° C. The supernatant is discarded and the pellets then washed with 0.25 ml PBS by repeat centrifugation and removal of supernatant before freezing cell pellets at −80° C. To prepare extracts, plates are allowed to thaw for 30 min and then pellets are resuspended in 0.25 ml of a suitable lysis buffer (for example—50 mM Tris HCL buffer at pH 8.0, 5% glycerol containing 50 mM NaCl and lysonase) mixed, incubated at room temperature for a sufficient time for lysis to be near complete and then centrifuged to remove cell debris and 100 ul of supernatant extract removed to a 96 well V-shaped well plate and stored on ice prior to assay.
Optionally plate assays are stopped with brief heating to 95 C before returning to ice and addition of UDP-Glo detection reagent followed by incubation at lab temperature. […] In addition a UDP standard curve is run alongside each set of plate tests.
Making use of the ELISA assay it is then possible to calculate a specific activity (e.g. in Relative Luminescence Units (RLU)/min/ug bx protein) based upon the amount of each mutant bx9 polypeptide expressed in each well. […] The specific activity of the various test mutant extracts on the same plate are then expressed as a fraction of the specific activity of the w/t bx9 and thus the ‘improvement factor’ versus the w/t expressed as a decimal where, for example, ‘0.5’ means half the specific activity of the wild type and 2.0 means twice the specific activity of the wild type. However, as will be readily apparent to the skilled man, particularly in cases where the UDP assay signal was low (with poor signal to noise versus the background) and/or the ELISA measurement of bx protein also low such a method is prone to generate spurious high specific activity numbers and uncertain numbers.
On to B1, for which the “Preferred amino acid substitutions and (IF) based on RLU/min/ul” value was “M(1.0)”.
Take B2: the “Preferred amino acid substitutions and (IF) based on RLU/min/ul” value was found to be 1.0.
On to B3, for which the “Preferred amino acid substitutions and (IF) based on RLU/min/ul” value was 1.0.
As to B4, the “Preferred amino acid substitutions and (IF) based on RLU/min/ul” value stood at 1.0.
